In patent US10967064B2, “Preparation method for a DNA origami based carrier system” (YEDITEPE UNIVERSITESI, priority 2016, dated 2021):

How the values were obtained:
[1] = Dynamic light scattering analysis of hydrodynamic size; assay type: physicochemical; details: DLS, dispersed in water
Experimental: In step 1), 2 μL of each complementary oligonucleotide from a 100 μM stock is added into the hybridization buffer TAE/Mg^2+ to have a final volume of 200 μL. The newly prepared DNA origami carrier is characterized using AFM, agarose gel electrophoresis and dynamic light scattering analysis.
For DLS measurements, DNA tiles are dispersed in water. In water, DNA tiles are solvated by water molecules. This hydration layer causes grater diameter than theoretical size of the structure. Hydrodynamic size of DNA tiles was determined as approximately 50 nm, which is in good agreement with AFM results.

[2] = Atomic force microscopy (AFM) size of DNA tile on mica; assay type: physicochemical; details: dried on mica, non-contact mode; theoretical value 40 nm
From the text: The DNA tile samples taken from the hybridization media were dropped on mica surface for deposition and subsequently washed with deionized water. When the dropped DNA samples on mica were dried, images acquired at non-contact mode. Considering the distance between the base pairs in the DNA as 0.34 nm and the number of the base pairs in the DNA tile structure from one end to another, […], the theoretical length of an assembled DNA tile can be estimated as 40 nm. A representative AFM image obtained from the DNA tile containing dried droplet area is shown on FIG. 2. […] The marked structure is measured as 64 nm, which is larger than the theoretical value of 40 nm. […] Considering the fact that the formation of DNA based structures is not always 100 percent efficient, this deviation can be acceptable.

MDA-MB-231 cell line = test: Cytotoxicity of the DNA origami carrier (cell viability); assay type: cell-based; details: MDA-MB-231, concentration range 50-400 nM
Experimental: The cytotoxicity assessments of the DNA origami structure were carried out on MDA-MB-231 cell line at a concentration range of 50-400 nM. According to the cell viability results of the experiment, the DNA-tiles are non-toxic to the cells.

B1: DNA tiles: tile shaped DNA origami structure prepared by hybridizing nine complementary oligonucleotides (SEQ ID NOS: 1-9) (nucleic acid)
DNA 1: AGGCACCATCGTAGGAAAATCTGCGTCAGCTCTCCGTACACCAGTGCTTCCATGCGAAGTAAAACGTTCCGATCACCAACGGAGTAAAACGATCTAACTGATAACTAGCACCTCTGCTCACGTGAGGAGTAAAACTTGCC
DNA 2: ATACCGGAGGCTTCCTGTACGGAGAGCTGACGCAGACCTACGATGGACACGCCG
DNA 3: ATGCAACCTGCCTGGCAAGACTCCTCACGTGAGCAGAGGACTACTCATCCGTTA
DNA 4: TTTCCGACTGAGCCCTGCTAGTTATCAGTTAGATCGACTCCGTTGGACGAACAG
DNA 5: ATAGCGCCTGATCGGAACGACTTCGCATGGAAGCACTGGACCGTTCTACCGATT
DNA 6: CTCGCAATCGGTAGAACGGTGGAAGCCTCCGGTATGCATG
DNA 7: AAAAAAAAAACGGCGTGTGGTTGCATAAAAAAAAAA
DNA 8: CGCTATAACGGATGAGTAGTGGGCTCAGTCGGAAAGAGCA
DNA 9: AAAAAAAAAACTGTTCGTGGCGCTATAAAAAAAAAA
modifications: Oligonucleotide 1; Oligonucleotide 2; Oligonucleotide 3; Oligonucleotide 4; Oligonucleotide 5; Oligonucleotide 6; Oligonucleotide 7; Oligonucleotide 8; Oligonucleotide 9
For B1, the Hydrodynamic size [1] was “approximately 50 nm”, the “Size of marked structure in AFM image” value [2] was 64 nm and the “Cytotoxicity (cell viability)” value (MDA-MB-231 cell line) was “non-toxic”.
